Assay results as given in patent US20220242958A1, “BISPECIFIC NANOBODIES” (Ablynx N.V., priority 2013, published 2022).

Assays:
[1] = test system: IL-23 dependent IL-17 release, human PBMCs; experiment: IL-23 dependent IL-17 release in human PBMCs; format: cell-based; conditions: 9 days; donor D840
Experimental: In this assay set-up human PBMCs were cultured in the presence of soluble IL23 to allow differentiation of T cells towards the Th17 phenotype. Cells were seeded onto OKT-3 (eBioscience #16-0037-85) coated plates in the presence of recombinant human IL-23 (eBioscience #14-8239) and PeliCluster CD28 (Sanquin #M1650) in solution. Cytokine (IL17) release in the presence or absence of the respectively Nanobodies was determined by ELISA after an incubation period of 9 days.
Dose-dependent inhibition of the panel of bispecific IL23R-CD4 and IL12Rβ1-CD4 polypeptides was assessed in comparison to the respective monovalent Nanobodies, with in this case the IL12Rβ1-CD4 specific polypeptides serving as negative controls. […] There is a preference for the IL12Rβ1 building block in the C-terminal position from CD4 in this assay. There is a clear difference in potency between the two IL12Rβ1 family members, corresponding to the different binding kinetics and affinities, and this difference is preserved in the potency of the bispecific constructs.

[2] = molecular target: T1, IL23R on Th17 differentiated T cells (Homo sapiens, UniProt Q5VWK5); experiment: Flow cytometry binding to T cells differentiated towards Th17 phenotype; conditions: IL23R Nanobodies on Th17 differentiated cells
T1 construct: endogenous in cells; host or cells: T cells within human PBMCs differentiated towards Th17
T1 sequence (Q5VWK5 24-629): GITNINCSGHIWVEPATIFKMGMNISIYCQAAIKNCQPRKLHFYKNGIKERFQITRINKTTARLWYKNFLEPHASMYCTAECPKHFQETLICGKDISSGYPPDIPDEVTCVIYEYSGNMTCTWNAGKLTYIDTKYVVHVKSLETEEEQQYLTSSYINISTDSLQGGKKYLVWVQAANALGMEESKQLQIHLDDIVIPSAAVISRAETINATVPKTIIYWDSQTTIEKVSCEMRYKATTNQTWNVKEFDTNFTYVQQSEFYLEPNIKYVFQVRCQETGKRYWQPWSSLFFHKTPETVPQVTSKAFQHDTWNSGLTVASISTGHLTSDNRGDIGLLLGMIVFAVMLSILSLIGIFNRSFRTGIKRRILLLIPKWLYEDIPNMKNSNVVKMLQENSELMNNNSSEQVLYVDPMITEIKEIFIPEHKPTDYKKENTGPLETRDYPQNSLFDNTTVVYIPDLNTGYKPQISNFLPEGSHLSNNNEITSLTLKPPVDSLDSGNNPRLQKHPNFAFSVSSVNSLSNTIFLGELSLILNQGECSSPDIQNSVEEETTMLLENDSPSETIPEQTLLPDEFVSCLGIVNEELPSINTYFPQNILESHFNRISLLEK
Experimental: As the expression of IL23R was very low in the T cell pool, the binding of monovalent IL23R Nanobodies was assessed on cells that were differentiated towards the Th17 phenotype by the incubation of PBMCs in the presence of a cytokine cocktail and IL-23, recombinant IL-6 (eBioscience #34-8069-82), recombinant TGF-b1 (R&D #240-B), anti-human IL-4 antibody(BD#554481), recombinant IL-1b (BD#554602)) and recombinant Human IL-23 (R&D Systems #219-IL-005) with co-stimulation of plate coated OKT-3 (eBioscience #16-0037-85), PeliCluster CD28 (Sanquin #M1650). Following this procedure, low but detectable IL23R expression levels were obtained. Optimization in the Th17 differentiation protocol could further increase these expression levels.
Dose-dependent binding of monovalent Nanobodies was assessed by flow cytometry on the respective Th1 or Th17 enriched T cell populations. Serial dilutions of antibody or Nanobodies were allowed to associate for 30 minutes at 4° C. in FACS buffer (PBS supplemented with 10% FBS and 0.05% azide). Cells were washed by centrifugation and probed with anti-FLAG antibodies (Sigma F1804) for 30 minutes at 4° C., to detect bound Nanobody. Detection was done with Goat anti-Mouse IgG-PE (Jackson ImmunoResearch #115-116-071) for 30 minutes at 4° C. […] The cells were then analysed via a BD FACSArray.

[3] = molecular target: T2, human IL-23R extracellular domain Fc-fusion (Homo sapiens, UniProt Q5VWK5); experiment: SPR (Biacore T100) on IL-23R-Fc; format: binding
T2 construct: Fc-fusions of human IL12Rβ1, IL12Rβ2 and IL-23R extracellular domains; purchased R&D Systems #1400-IR
T2 sequence (Q5VWK5 24-355 limits assumed): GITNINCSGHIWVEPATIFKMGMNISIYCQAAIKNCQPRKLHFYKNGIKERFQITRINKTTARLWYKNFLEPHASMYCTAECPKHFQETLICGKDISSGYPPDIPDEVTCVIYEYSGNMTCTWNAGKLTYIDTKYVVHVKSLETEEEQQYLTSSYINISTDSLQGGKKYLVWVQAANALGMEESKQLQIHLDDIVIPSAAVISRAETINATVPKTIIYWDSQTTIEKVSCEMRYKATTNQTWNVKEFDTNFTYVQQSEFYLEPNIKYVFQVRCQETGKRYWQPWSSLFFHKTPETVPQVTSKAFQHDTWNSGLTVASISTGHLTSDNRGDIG
Experimental: (§1) The precise binding affinities of the purified Nanobodies were determined in a multi-cycle kinetic analysis using Surface Plasmon Resonance analysis (Biacore T100) on Fc-fusions of human IL12Rβ1, IL12Rβ2 and IL-23R extracellular domains (R&D Systems, #839-B1, #1959-B2, #1400-IR). Sensorchips CM5 were immobilized with anti-hIgG antibody (GE Healthcare, BR-1008-39), after which receptors were captured at 5 μg/ml protein and contact time of 120 seconds. Running buffer used was HBS-EP+ (GE Healthcare, BR-1006-69) at 25° C., with a flow-rate of […]. For immobilization by amine coupling, EDC/NHS was used for activation and ethanolamine HCl for deactivation (Biacore, amine coupling kit). Nanobodies were evaluated at a concentration range between 1.37 nM and 3 μM. Nanobodies were allowed to associate for 2 min and to dissociate for 15 min at a flow rate of […]. In between injections, the surfaces were regenerated with a 3 min pulse of 3M MgCl2 and 2 min stabilization period. Evaluation of the association/dissociation data was performed by fitting a 1:1 interaction model (Langmuir binding model) by Biacore TWO software v2.0.3.

[4] = test system: activated human T cells; experiment: Flow cytometry binding to activated human T cells (TH1); conditions: IL12Rb1 and IL12Rb2 Nanobodies on TH1 activated T cells
Experimental: Dose-dependent binding of monovalent Nanobodies to their cell-expressed receptor in the context of the heterodimeric complex was determined by flow cytometry on activated human T cells from distinct healthy donors.
Human T cells were isolated using the Human T Cell Enrichment Cocktail (RosetteSep #15061) and pre-activated for four days with Dynabeads® Human T-Activator CD3/CD28 (Gibco—Life Technologies #11131D) and one day with recombinant human IL-2 (Life Technologies—Gibco #PHC0027) to induce TH1 differentiation. Routinely, T cell markers surface expression and activation state was checked by FACS using anti-CD3 PE (eBioscience #12-0037-73), anti-CD8-PE (BD Bioscience #555367), anti-CD45RO-PE (BD Bioscience #555493), anti-CD45RA-APC (BD Bioscience #550855) anti-CD25-PE (BD Bioscience #557138) and anti-CD69-PE (BD Bioscience #557050). IL12R surface expression was confirmed by FACS using IL12Rβ1 antibody (R&D MAB839), followed by goat anti-mouse PE (Jackson Immuno Research 115-115-164). The expression of IL23R was checked by polyclonal goat anti-IL-23R (R&D AF1400). CD4 surface expression was confirmed by FACS using APC-labelled anti-CD4 (BD Bioscience #345771). […]
Dose-dependent binding of monovalent Nanobodies was assessed by flow cytometry on the respective Th1 or Th17 enriched T cell populations. […] The cells were then analysed via a BD FACSArray.

[5] = test system: IL-12 dependent IFN-γ release, human T cells; experiment: IL-12 mediated IFN-γ release in activated human T cells; format: cell-based; conditions: 0.2 pM IL-12; 72 h; donor D839
Experimental: The ability of bispecific polypeptides to simultaneously engage both targets on the same cell was analysed in a IL-12 dependent functional assay, inhibition of IL-12 mediated IFN-γ release in activated human T cells. Since the functional blockade is only mediated via IL12R, avidity by the simultaneous binding of the CD4 Nanobody is expected to translate into increased potency of the bispecific in inhibition of cytokine release.
Isolated human T cells from buffycoats were activated for four days with Dynabeads® Human T-Activator CD3/CD28 (Gibco—Life Technologies #11131D) and one day with IL-2. To differentiate into Th1 subtype, T cells were cultured in presence of IL-12 with co-stimulation provided by plate coated CD3 at 0.5 μg/ml (eBioscience #16-0037-85) and anti-CD28 (1 μg/ml PeliCluster, Sanquin #M1650) in solution.
Dose-dependent blockade of IL-12 mediated IFNγ release was assessed for the bispecific IL-12Rβ2-CD4 and IL-12Rβ1-CD4 polypeptides in both orientations, and the corresponding monovalent Nanobodies. The IL-23R-CD4 bispecific polypeptides served as negative controls. Representative graphs of the bispecific IL12Rβ1-CD4, IL12Rβ2-CD4 and IL23R-CD4 polypeptides are shown in FIG. 3.9, and IC50 values in Table 3.2. […] Although bispecific constructs in both orientations show potency enhancements, the IL12Rβ2 Nanobody in the N-terminal position from CD4 gave stronger enhancements.

[6] = molecular target: T3, human IL12Rβ1 extracellular domain Fc-fusion (Homo sapiens, UniProt P42701); experiment: SPR (Biacore T100) on IL12Rβ1-Fc; format: binding
T3 construct: Fc-fusions of human IL12Rβ1, IL12Rβ2 and IL-23R extracellular domains; purchased R&D Systems #839-B1
Experimental: as §1

B1: IL23R#20: IL-23R specific ligand competing Nanobody (protein)
VHH: EVQLVESGGGLVQAGGSLRLSCAASGRTFSSYAMGWFRQAPGKDREFVAAISWIGESTYYADSVKGRFTISRDNAKNTVYLRMNSLKPEDTAVYYCAADLYYTAYVAAADEYDYWGQGTLVTVSS
- IL-17 release PBMC D840 IC50 (M) [1]: no fit
- Binding T cells (FACS) EC50 (M) [2]: No fit
- Binding kinetics (SPR) ka (1/Ms), IL-23R [3]: 3e+06 M⁻¹ s⁻¹
- Binding kinetics (SPR) kd (1/s), IL-23R [3]: 0.23 s⁻¹

B2: IL12Rb1#31: IL-12Rβ1 specific ligand competing Nanobody (protein)
VHH: EVQLVESGGGLVQTGGSLRLSCAASGRTPSIIAMGWFRQTPGKEREFVGEIILSKGFTYYADSVKGRFTISRANAKNTITMYLQMNSLKSEDTAVYYCAARQNWSGNPTRTNEYEYWGQGTLVTVSS
- Binding T cells (FACS) EC50 (M) [4]: No fit
- IFNγ release T cells D839 IC50 (M) [5]: no fit
- Binding kinetics (SPR) ka (1/Ms), IL12Rβ1 [6]: 720000 M⁻¹ s⁻¹
- Binding kinetics (SPR) kd (1/s), IL12Rβ1 [6]: 0.017 s⁻¹
